The term Ki denotes the dissociation constant of the complex between target and ligand, obtained from inhibition or displacement. A higher Ki goes with lower affinity.

The test addresses AtCYT6-CTD (C-terminal cystatin domain of phytocystatin 6) (UniProt Q8H0X6). In words: Enzyme inhibition kinetics. The settings on record: pH 5.5; 25 °C; 100 mM NaCl; 20 mM citric acid pH 5.5.
Chain of UniProt Q8H0X6 (Q8H0X6 whole entry, the tested form may be a part): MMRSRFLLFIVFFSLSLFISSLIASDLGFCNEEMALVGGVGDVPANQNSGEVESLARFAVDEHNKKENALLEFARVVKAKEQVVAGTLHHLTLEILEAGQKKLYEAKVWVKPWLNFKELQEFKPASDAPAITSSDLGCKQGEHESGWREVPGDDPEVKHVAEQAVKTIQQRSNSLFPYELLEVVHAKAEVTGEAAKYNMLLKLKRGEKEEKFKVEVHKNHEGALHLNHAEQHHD

Regarding “AtLEGβ (legumain isoform β, vacuolar processing enzyme β), activated catalytic domain”, the Ki was 0.61 ± 0.23 nM.

(Values after doi:10.1101/2023.05.22.541692.)
